What was measured:
Assay in all cases: pull-down binding Z-score (relative to library population); higher = stronger binding
[1] = system: G-clamp-N3 (biotin conjugate); conditions: RNA library: Library-1 (pre-miRNA loops + repeats)
Procedure, shortened: (§1)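 Biotin-conjugated small molecule (100 pmol) on streptavidin beads was incubated with 1 μg of heat-folded Cy5- or Cy3-end-labelled RNA library in phosphate/NaCl/KCl buffer at 25 °C for 60 min. Following three washes, RNA was eluted with hot SDS and hybridised at 55.5 °C for 20 h to a DNA barcode microarray. The binding value is a Z-score computed from the library mean and standard deviation, after subtraction of beads without compound and averaging of barcoded replicate probes with the highest and lowest excluded.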

[2] = system: TO-N3-2 (biotin conjugate); conditions: RNA library: Library-2
Procedure, shortened: as §1

TO-N3 (biotin conjugate) = conditions: RNA library: Library-2
Procedure, shortened: as §1

[3] = system: TO-3-N3-2 (biotin conjugate); conditions: RNA library: Library-2
Procedure, shortened: as §1

[4] = system: TO-3-N3 (biotin conjugate); conditions: RNA library: Library-2
Procedure, shortened: as §1

UGGUUGAAUAUGUGAAUGGCAUCG [hsa-mir-449a]
pull-down binding Z-score [1]: 0.694 | pull-down binding Z-score [2]: 0.601 | pull-down binding Z-score (TO-N3 (biotin conjugate)): 0.153 | pull-down binding Z-score [3]: 0.0695 | pull-down binding Z-score [4]: -0.0496

ACCCUGCAGCCCCAGCUGGAGGAUGAGGAGAUGCUGGGCUUGGGU [hsa-mir-4313]
pull-down binding Z-score [1]: 1.16 | pull-down binding Z-score [2]: 2.93 | pull-down binding Z-score (TO-N3 (biotin conjugate)): 1.73 | pull-down binding Z-score [3]: 1.45 | pull-down binding Z-score [4]: 0.794

CCCACUUCCUGGA [hsa-mir-4260]
pull-down binding Z-score [1]: -0.562 | pull-down binding Z-score [2]: -0.0316 | pull-down binding Z-score (TO-N3 (biotin conjugate)): -0.494 | pull-down binding Z-score [3]: -0.529 | pull-down binding Z-score [4]: -0.513

UUCAUUCAUUCGUUUGCACAUUCGGUGAA [hsa-mir-493]
pull-down binding Z-score [1]: 0.183 | pull-down binding Z-score [2]: -0.394 | pull-down binding Z-score (TO-N3 (biotin conjugate)): -0.736 | pull-down binding Z-score [3]: -0.21 | pull-down binding Z-score [4]: -0.556

GCAGCAGGCACCUGCUUCC [hsa-mir-6868]
pull-down binding Z-score [1]: -0.816 | pull-down binding Z-score [2]: 1.49 | pull-down binding Z-score (TO-N3 (biotin conjugate)): 0.984 | pull-down binding Z-score [3]: 0.16 | pull-down binding Z-score [4]: 0.367

GGACAUCCUUCCAUAGUAAAUAAGCGGUGCC [hsa-mir-8064]
pull-down binding Z-score [1]: -0.584 | pull-down binding Z-score [2]: 0.218 | pull-down binding Z-score (TO-N3 (biotin conjugate)): -0.0974 | pull-down binding Z-score [3]: 0.131 | pull-down binding Z-score [4]: -0.38

AGUCCUGUAAUUAGAUCUCAGGACU [hsa-mir-625]
pull-down binding Z-score [1]: -0.0681 | pull-down binding Z-score [2]: -0.88 | pull-down binding Z-score (TO-N3 (biotin conjugate)): -0.817 | pull-down binding Z-score [3]: -0.739 | pull-down binding Z-score [4]: -0.745

AGGCUCUGGGUCCGGCUUACUCCCUAGCUUACUGUCCUCAGAACCC [hsa-mir-6071]
pull-down binding Z-score [1]: -0.386 | pull-down binding Z-score [2]: 0.924 | pull-down binding Z-score (TO-N3 (biotin conjugate)): 0.311 | pull-down binding Z-score [3]: 0.226 | pull-down binding Z-score [4]: -0.173

GGUUGCUGGAGGUCAGC [hsa-mir-6871]
pull-down binding Z-score [1]: 0.0274 | pull-down binding Z-score [2]: 0.785 | pull-down binding Z-score (TO-N3 (biotin conjugate)): 0.489 | pull-down binding Z-score [3]: 0.233 | pull-down binding Z-score [4]: 0.155

CUUGCAGAAUUAAUGGAAUGCUG [hsa-mir-676]
pull-down binding Z-score [1]: -1.73 | pull-down binding Z-score [2]: 0.28 | pull-down binding Z-score (TO-N3 (biotin conjugate)): 0.41 | pull-down binding Z-score [3]: 0.0539 | pull-down binding Z-score [4]: 0.253

GGGGCUGGUUGUCUA [hsa-mir-6080]
pull-down binding Z-score [1]: 0.388 | pull-down binding Z-score [2]: 0.516 | pull-down binding Z-score (TO-N3 (biotin conjugate)): 0.377 | pull-down binding Z-score [3]: -0.165 | pull-down binding Z-score [4]: 0.297

AGCUGUUGGCCAUGGCGACAACACCU [hsa-mir-6742]
pull-down binding Z-score [1]: 0.213 | pull-down binding Z-score [2]: 0.561 | pull-down binding Z-score (TO-N3 (biotin conjugate)): -0.246 | pull-down binding Z-score [3]: -0.322 | pull-down binding Z-score [4]: -0.508

CUGCAGGGACUGUGACACUGAA [hsa-mir-6816]
pull-down binding Z-score [1]: 1.64 | pull-down binding Z-score [2]: 1.22 | pull-down binding Z-score (TO-N3 (biotin conjugate)): 0.85 | pull-down binding Z-score [3]: 0.24 | pull-down binding Z-score [4]: -0.0339

GUCUGCCAAGGUUUUGGCAGAC [hsa-mir-3913-2]
pull-down binding Z-score [1]: 0.558 | pull-down binding Z-score [2]: -1.2 | pull-down binding Z-score (TO-N3 (biotin conjugate)): -0.992 | pull-down binding Z-score [3]: -0.539 | pull-down binding Z-score [4]: -0.58

UGCUCAGUGGAGUUAUUUUGAGCA [hsa-mir-4495]
pull-down binding Z-score [1]: 1.2 | pull-down binding Z-score [2]: -1.2 | pull-down binding Z-score (TO-N3 (biotin conjugate)): -1.42 | pull-down binding Z-score [3]: -0.621 | pull-down binding Z-score [4]: -1.01

CAUGCGCUAUCUCUGUGUCGUAUG [hsa-mir-380]
pull-down binding Z-score [1]: -0.269 | pull-down binding Z-score [2]: -0.0393 | pull-down binding Z-score (TO-N3 (biotin conjugate)): -0.0621 | pull-down binding Z-score [3]: -0.301 | pull-down binding Z-score [4]: -0.0846

CAGUGCUUUUAGAAAAUUUGUGUG [hsa-mir-581]
pull-down binding Z-score [1]: -0.904 | pull-down binding Z-score [2]: -0.187 | pull-down binding Z-score (TO-N3 (biotin conjugate)): -0.558 | pull-down binding Z-score [3]: 0.00216 | pull-down binding Z-score [4]: -0.514

AUUAUGUUUUGGACAUAGAAACAUAAC [hsa-mir-5688]
pull-down binding Z-score [1]: -0.841 | pull-down binding Z-score [2]: -0.665 | pull-down binding Z-score (TO-N3 (biotin conjugate)): -0.981 | pull-down binding Z-score [3]: -0.377 | pull-down binding Z-score [4]: -0.878

CCAUGCUGUUUAAGCCUAGCAUAG [hsa-mir-4423]
pull-down binding Z-score [1]: -0.374 | pull-down binding Z-score [2]: 0.476 | pull-down binding Z-score (TO-N3 (biotin conjugate)): 0.208 | pull-down binding Z-score [3]: -0.16 | pull-down binding Z-score [4]: 0.0223

GUUCGGGGGUUCCGACGGCGAC [hsa-mir-6790]
pull-down binding Z-score [1]: 3.09 | pull-down binding Z-score [2]: 1.76 | pull-down binding Z-score (TO-N3 (biotin conjugate)): 2.67 | pull-down binding Z-score [3]: 0.957 | pull-down binding Z-score [4]: 2.61

CCAUAAGCUGUCUAAAACUUCG [hsa-mir-4513]
pull-down binding Z-score [1]: -1.21 | pull-down binding Z-score [2]: -0.0485 | pull-down binding Z-score (TO-N3 (biotin conjugate)): -0.327 | pull-down binding Z-score [3]: -0.153 | pull-down binding Z-score [4]: -0.354

ACAGCAGUCUUACUGAAGGUUUCCUGGAAACCACGCACAUGCUGU [hsa-mir-744]
pull-down binding Z-score [1]: -0.613 | pull-down binding Z-score [2]: -0.5 | pull-down binding Z-score (TO-N3 (biotin conjugate)): -0.165 | pull-down binding Z-score [3]: -0.233 | pull-down binding Z-score [4]: -0.304

CCCCCAAUUAAAGUAGAUUGGGGG [hsa-mir-3153]
pull-down binding Z-score [1]: 0.917 | pull-down binding Z-score [2]: -1.29 | pull-down binding Z-score (TO-N3 (biotin conjugate)): -0.725 | pull-down binding Z-score [3]: -0.696 | pull-down binding Z-score [4]: -0.415

CGUACGCUUUAUCUGUGACGUAUG [hsa-mir-411]
pull-down binding Z-score [1]: 0.625 | pull-down binding Z-score [2]: -0.0511 | pull-down binding Z-score (TO-N3 (biotin conjugate)): -0.611 | pull-down binding Z-score [3]: -0.338 | pull-down binding Z-score [4]: -0.61

UUUGCCAUUAUAAUGGCAAA [hsa-mir-548ae-1]
pull-down binding Z-score [1]: -0.11 | pull-down binding Z-score [2]: -1.71 | pull-down binding Z-score (TO-N3 (biotin conjugate)): -1.37 | pull-down binding Z-score [3]: -0.855 | pull-down binding Z-score [4]: -0.806

CGGUACCCACUGCUGAGGGUGGGGACCA [hsa-mir-3691]
pull-down binding Z-score [1]: -0.0994 | pull-down binding Z-score [2]: 0.687 | pull-down binding Z-score (TO-N3 (biotin conjugate)): 0.55 | pull-down binding Z-score [3]: -0.291 | pull-down binding Z-score [4]: 0.628

GGGGAUGGACUGGAAGUGGGCAGCAUGGAGCUGACCUUCAUCAUGGCUUGGCCAACAUAAUGCCUC [hsa-mir-1236]
pull-down binding Z-score [1]: -0.0946 | pull-down binding Z-score [2]: 1.38 | pull-down binding Z-score (TO-N3 (biotin conjugate)): 1.98 | pull-down binding Z-score [3]: 1.33 | pull-down binding Z-score [4]: 1.72

CAGAGUGUGCAUGGCAGGCU [hsa-mir-7156]
pull-down binding Z-score [1]: -0.349 | pull-down binding Z-score [2]: 0.86 | pull-down binding Z-score (TO-N3 (biotin conjugate)): 0.869 | pull-down binding Z-score [3]: 0.342 | pull-down binding Z-score [4]: 0.383

CUGAGCGGCUCCAUCCCCCGGCCUGCUCAU [hsa-mir-6729]
pull-down binding Z-score [1]: -1.11 | pull-down binding Z-score [2]: 1.81 | pull-down binding Z-score (TO-N3 (biotin conjugate)): 1.14 | pull-down binding Z-score [3]: 0.224 | pull-down binding Z-score [4]: 0.85

AGCCUUCUAUUAUGCCCAGACAGGGCCACCAGAGGGCU [hsa-mir-4448]
pull-down binding Z-score [1]: -0.731 | pull-down binding Z-score [2]: -0.254 | pull-down binding Z-score (TO-N3 (biotin conjugate)): -0.746 | pull-down binding Z-score [3]: -0.619 | pull-down binding Z-score [4]: -0.471

UGAGACCUGGUGCAGAACGGGAAGGCGA [hsa-mir-551b]
pull-down binding Z-score [1]: 1.4 | pull-down binding Z-score [2]: 1.76 | pull-down binding Z-score (TO-N3 (biotin conjugate)): 1.23 | pull-down binding Z-score [3]: 0.479 | pull-down binding Z-score [4]: 0.308

UGGUGCAAUAAUUGG [hsa-mir-1302-7]
pull-down binding Z-score [1]: 1.95 | pull-down binding Z-score [2]: 0.245 | pull-down binding Z-score (TO-N3 (biotin conjugate)): 0.4 | pull-down binding Z-score [3]: 0.492 | pull-down binding Z-score [4]: 0.418

UGCUUGAUCCAUAUGCAACAAGGCA [hsa-mir-103b-1]
pull-down binding Z-score [1]: -0.604 | pull-down binding Z-score [2]: 0.715 | pull-down binding Z-score (TO-N3 (biotin conjugate)): 0.57 | pull-down binding Z-score [3]: 0.244 | pull-down binding Z-score [4]: 0.453

GGCUGUGAGCUCUAGCAAUGCCC [hsa-mir-146b]
pull-down binding Z-score [1]: -0.867 | pull-down binding Z-score [2]: 1.31 | pull-down binding Z-score (TO-N3 (biotin conjugate)): 0.59 | pull-down binding Z-score [3]: 0.158 | pull-down binding Z-score [4]: 0.251

CAAAUCGCCUCUUCAAUGGAUUUG [hsa-mir-133a-1]
pull-down binding Z-score [1]: 1.23 | pull-down binding Z-score [2]: -0.613 | pull-down binding Z-score (TO-N3 (biotin conjugate)): 0.0594 | pull-down binding Z-score [3]: -0.209 | pull-down binding Z-score [4]: 0.308

CACUGCAGUUACCCUCCCCUCGGCGUUACUGAGCACUG [hsa-mir-637]
pull-down binding Z-score [1]: -0.893 | pull-down binding Z-score [2]: 0.948 | pull-down binding Z-score (TO-N3 (biotin conjugate)): 0.603 | pull-down binding Z-score [3]: 0.224 | pull-down binding Z-score [4]: 0.22

ACUACUGUACUUUACAGCUAGCAGU [hsa-mir-301a]
pull-down binding Z-score [1]: 0.0373 | pull-down binding Z-score [2]: 1.09 | pull-down binding Z-score (TO-N3 (biotin conjugate)): 0.303 | pull-down binding Z-score [3]: -0.244 | pull-down binding Z-score [4]: -0.475

Reference: the supplement of paper PMC11865577
